Reference: patent US20210284749A1 (ABL BIO, published 2021)
Substitutions are numbered along the chain they refer to. “And” between values parts separate entries of the source, which are not always exact repeats. Equal values may be shown once.

T1: human BCMA expressed on cell surface (H929, OPM-2, CHOK1-hBCMA cells) (human, UniProt Q02223 1-184)
T1 construct: also called cell-surface BCMA; BCMA on cell surface
T1 sequence: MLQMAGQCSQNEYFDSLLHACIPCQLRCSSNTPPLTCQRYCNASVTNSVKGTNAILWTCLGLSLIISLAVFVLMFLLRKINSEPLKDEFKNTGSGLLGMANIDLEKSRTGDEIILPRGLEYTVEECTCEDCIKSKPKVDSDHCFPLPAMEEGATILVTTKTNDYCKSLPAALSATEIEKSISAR

T2: mouse BCMA (1-49) fused to the Fc region of human IgG1 (mouse; human, UniProt O88472 1-49)
T2 construct: Sino Biological Inc. 50076-M01H; also called 50076-M01H; not shown: Fc region of human IgG1
T2 chain: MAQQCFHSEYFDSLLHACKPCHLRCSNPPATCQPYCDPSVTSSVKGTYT

T3: recombinant human BCMA (ELISA antigen, construct not specified) (human, UniProt Q02223 1-54)
T3 construct: Fc 1-51; Fc/His 1-51; Fc 4-48) was coated in these ELISAs; also called recombinant BCMA; recombinant protein
T3 sequence: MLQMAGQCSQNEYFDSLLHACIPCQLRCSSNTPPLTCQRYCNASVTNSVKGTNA

T4: rat BCMA (1-49) fused to the Fc region of human IgG1 (rat; human)
T4 construct: Sino Biological Inc. 80156-R01H; also called 80156-R01H; not shown: Fc region of human IgG1
T4 chain: T2 chain with Q4R, H22R, T31P, V40M, K45R

B1: anti-BCMA IgG antibody 5A6 (antibody, V domains shown)
VH: EVQLLESGGGLVQPGGSLRLSCAASGFTFSNYGVHWVRQAPGKGLEWVSYISYSGGTYYNPSLKSRFTISRDNSKNTLYLQMNSLRAEDTAVYYCARDSDDFGFDYWGQGTLVTVSS
VL: QSVLTQPPSASGTPGQRVTISCQGDSLRSYYVNWYQQLPGTAPKLLIYDHSKRPTGVPDRFSGSKSGTSASLAISGLRSEDEADYYCQSYDSSTVVFGGGTKLTVLG
notes: also called 5A6 WT; 5A6 antibody
B2: anti-BCMA IgG antibody 5D5 (antibody, V domains shown)
VH: EVQLLESGGGLVQPGGSLRLSCAASGFTFSDYGLSWVRQAPGKGLEWVSLIDSSGSSTFYADSVKGRFTISRDNSKNTLYLQMNSLRAEDTAVYYCAKEHGLFDSWGQGTLVTVSS
VL: EIVLTQSPGTLSLSPGERATLSCKASQDIDDDINWYQQKPGQAPRLLIYDASLRATGIPDRFSGSGSGTDFTLTISRLEPEDFAVYYCQQSLRTPITFGQGTKLEIKR
notes: also called 5D5 WT; 5D5 antibody

Columns and labels:
[1] = target: T1, human BCMA expressed on cell surface …; test: FACS on H929 cells
[2] = target: T2, mouse BCMA (1-49) fused to the Fc …; test: ELISA on 100 ng coated mouse BCMA, antibody titrated, anti-human Fab HRP, absorbance 450 nm
Method: (§1) 100 ng of human, monkey, mouse, and rat BCMA antigens prepared in Example 1.1 were coated on the bottom of the plate, and then coated with 3% BSA to block nonspecific binding. Using the selected anti-BCMA IgG antibodies as primary antibodies, and the anti-human Fab HRP (1:20000 dilution) as a secondary antibody, ELISA assay was performed as described in Example 1.3.
(§2) Absorbancies at 450 nm measured with a microplate reader are shown in FIG. 3, and half maximal effective concentrations (EC₅₀) (nM) are shown in Table 9.

[3] = target: T5, monkey (Rhesus) BCMA (1-53) fused to the Fc region of human IgG1 (monkey (Rhesus); human, UniProt Q02223 1-54); test: ELISA on 100 ng coated rhesus BCMA, antibody titrated, anti-human Fab HRP, absorbance 450 nm
T5 construct: Sino Biological Inc. 90103-C02H; also called monkey BCMA; Monkey BCMA (1-53); not shown: Fc region of human IgG1
Method: as §1, §2

[4] = target: T3, recombinant human BCMA (ELISA antigen, …); test: ELISA on coated recombinant human BCMA, antibody titrated, HRP anti-Fab detection, absorbance 450 nm
Method: Specific binding abilities of the anti-BCMA IgG antibodies isolated in Example 1.4 to recombinant BCMA protein were analyzed by ELISA.
Using recombinant human BCMA or monkey BCMA as an antigen, and HRP-conjugated Fab polychronal antibody reagent (Pierce, 31414) as a secondary antibody, ELISA was performed as described in Example 1.3.

[5] = target: T3, recombinant human BCMA (ELISA antigen, …); test: ELISA on recombinant BCMA
[6] = target: T5, monkey (Rhesus) BCMA (1-53) fused to …; test: BLI (Octet), monkey BCMA
[7] = target: T1, human BCMA expressed on cell surface …; test: FACS on H929 cells, 10 µg/ml antibody, anti-human Fc-FITC; open histogram shifted right of the filled control
Method: Multiple myeloma cancer cells H929 (ATCC, CRL9068™) and OPM-2 cell line (DSMZ, ACC 50), which are known to express BCMA, were prepared, and human BCMA-overexpressed CHOK1-hBCMA cell line (constructed by ABIBio) were prepared.
10 μg/ml of the seven IgG antibodies (B58, 5A6, 5D5, 5B5, 1H, 2G, and 5G) purified in Example 1.4 was added to the prepared cells, incubated at 4° C. for 1 hour, and then washed two times with a PBS buffer solution. The anti-human Fc-FITC was diluted in 1:400, incubated at 4° C. for 1 hour, and then washed with a PBS buffer solution. These processes were repeated. In FIGS. 2A and 2B, MFI indicates mean fluorescence intensity.

[8] = target: T3, recombinant human BCMA (ELISA antigen, …); test: ELISA on 100 ng coated human BCMA, antibody titrated, anti-human Fab HRP, absorbance 450 nm
Method: as §1, §2

[9] = target: T4, rat BCMA (1-49) fused to the Fc region …; test: ELISA, 100 ng coated antigen
Method: as §1, §2

[10] = target: T2, mouse BCMA (1-49) fused to the Fc …; test: ELISA, 100 ng coated antigen
Method: as §1, §2

Row | Binder | MFI [1] | binding result [2] | EC50 (read off the curve) [3] | EC50 (read off the curve) [4] | EC50 [5] | Kd [6] | koff [6] | kon [6] | MFI [7] | EC50 (read off the curve) [8] | EC50 [9] | EC50 [10] | EC50 (read off the curve) [2]
1 | B1 | 68.2 | no binding (tested: about 30 µg/ml) | ~0.02 µg/mL | ~0.1 µg/mL | 63.1 pM and 64.3 pM and 77 pM | 4510 pM | 0.00163 s⁻¹ | 361000 M⁻¹ s⁻¹ | 100 | ~0.02 µg/mL |  |  | 
2 | B2 | 36.4 |  | ~0.01 µg/mL | ~0.1 µg/mL | 70.8 pM and 65.2 pM | 346 pM | 0.000585 s⁻¹ | 1.69e+06 M⁻¹ s⁻¹ | 29.9 | ~0.01 µg/mL | 98000 pM | 150000 pM | ~0.01 µg/mL
